The record followed here is paper PMC8993888.

Experiment [1] concerns the target Ag43b α-domain (α^43b) from UPEC CFT073 (E. coli CFT073 (UPEC)). Kind of experiment: AUC; sedimentation velocity; α^43b sample concentrated above 30 mg/ml prior to AUC analysis (Supplementary Fig. 7); monomer to dimer.
Experiment [2] concerns the target Ag43a α-domain (α^43a) from UPEC CFT073 (E. coli CFT073 (UPEC)). Kind of experiment: AUC; sedimentation velocity, 2.2 mg/mL, 25 mM HEPES, 150 mM NaCl, pH 7.0, 20 °C, 40,000 rpm, absorbance at 285 nm, c(s) analysis; monomer to dimer.
Experiment [3] concerns the target Ag43^UTI89 α-domain (α^43_UTI89), complete passenger domain with the autochaperone domain, from UPEC UTI89 (E. coli UTI89 (UPEC)). The description is as above.
Experiment [4] deals with Ag43^EDL933 α-domain (α^43_EDL933), complete passenger domain with the autochaperone domain, from EHEC O157:H7 EDL933 (E. coli O157:H7 EDL933 (EHEC)). The description is as above.

The substance “Ag43b α-domain (α^43b) from UPEC CFT073 (domain or fragment)” gave a stoichiometry N in experiment [1] of 2.

As for “Ag43a α-domain (α^43a) from UPEC CFT073 (domain or fragment)”, the stoichiometry N in experiment [2] was determined as 2. For the substance “Ag43^UTI89 α-domain (α^43_UTI89), complete passenger domain with the autochaperone domain, from UPEC UTI89 (domain or fragment)”, in experiment [3], the stoichiometry N amounted to 2.

Consider “Ag43^EDL933 α-domain (α^43_EDL933), complete passenger domain with the autochaperone domain, from EHEC O157:H7 EDL933 (domain or fragment)”, for which the stoichiometry N in experiment [4] is 2.
